The target in assay [1] is PDlim2 fused with the GAL4 DNA-binding domain (pBind-PDlim2) (human) (UniProt Q96JY6). The assay is described as follows: two-hybrid.
In assay [2] the target is YC-PDlim2 (human) (UniProt Q96JY6). The assay is described as follows: split reporter (BiFC, NanoBiT).
The target in assay [3] is T1, PDlim2 PDZ domain (residues 1-83) (human, UniProt Q96JY6 1-83).
T1 construct: also called PDZ region (1-83) of PDlim2
T1 sequence (looked up): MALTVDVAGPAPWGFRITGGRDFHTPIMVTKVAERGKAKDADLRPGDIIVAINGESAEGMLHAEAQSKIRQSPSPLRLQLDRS
Description: crystal structure. To be noted: both partners purified.

In turn, “HN12-NS1 fused with the VP16 transcription activation domain (pACT-NS1) (natural protein)” gave a relative luciferase activity (firefly/Renilla) in assay [1] of 160 RLU.

In assay [2], YN-HN12-NS1 wt (natural protein) showed a mean fluorescence intensity (MFI) of 1120 and a percent of cells in the high fluorescence zone of 10.9%.

B1: C-terminal hexapeptide of HN12-NS1 (TIESEV) (peptide)
peptide: TIESEV
As to B1, in assay [3], the binding result was “binds”.
